Laboratory results reported in US20090318342A1, “Compounds” (IMPERIAL INNOVATIONS LIMITED, published 2009).

Legend:
[1] = molecular target: full-length collagenase 1 (MMP-1) (Homo sapiens (Human), UniProt P03956); assay: enzyme inhibition kinetics, Ki(app), as in Example 1
[2] = molecular target: gelatinase A (MMP-2) (Homo sapiens (Human), UniProt P08253); assay: as above
[3] = molecular target: T1, ADAMTS-5 (Homo sapiens (Human), UniProt Q9UNA0); assay: GST-IGD-FLAG substrate assay, Ki(app)
T1 sequence: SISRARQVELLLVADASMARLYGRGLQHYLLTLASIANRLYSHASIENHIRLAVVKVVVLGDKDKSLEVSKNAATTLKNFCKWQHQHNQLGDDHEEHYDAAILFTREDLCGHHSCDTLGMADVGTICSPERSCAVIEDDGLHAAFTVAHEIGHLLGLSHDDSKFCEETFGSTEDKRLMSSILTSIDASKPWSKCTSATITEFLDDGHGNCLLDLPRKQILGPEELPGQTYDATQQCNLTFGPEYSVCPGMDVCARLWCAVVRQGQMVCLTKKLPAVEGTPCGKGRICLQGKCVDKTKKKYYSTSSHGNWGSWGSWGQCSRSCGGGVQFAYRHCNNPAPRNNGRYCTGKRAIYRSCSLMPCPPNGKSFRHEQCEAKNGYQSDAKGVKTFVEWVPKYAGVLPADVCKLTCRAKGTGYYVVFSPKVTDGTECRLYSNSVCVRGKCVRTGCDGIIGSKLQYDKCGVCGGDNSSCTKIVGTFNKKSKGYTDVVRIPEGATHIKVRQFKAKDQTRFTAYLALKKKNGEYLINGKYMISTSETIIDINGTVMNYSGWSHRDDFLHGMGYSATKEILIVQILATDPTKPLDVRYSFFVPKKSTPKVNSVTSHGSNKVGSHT
Protocol: (§1) Aggrecanase assays were carried out in 50 mM Tris HCl pH 7.5, 150 mM NaCl, 10 mM CaCl₂, 0.02% NaN₃, 0.05% Brij-35 at 37° C. When N-TIMP-3 was used, the inhibitor was preincubated with the enzyme for 1 hour. Reaction volumes were a total of 10 μl, consisting of 5 μl of GST-IGD-FLAG substrate (34 μM), and 5 μl of ADAMTS-4 or ADAMTS-5 (2 nM) with or without inhibitor. Enzyme amounts and incubation times were as indicated. Enzyme reactions were stopped at appropriate time points with the addition of 10 μl 2×SDS-PAGE samples loading buffer containing 20 mM EDTA. Reactions were then applied to a 10% SDS-PAGE analysis. Proteins were stained using Coomassie Brilliant Blue R-250. The stained gels were then scanned using a scanning densitometer (Biorad GS-710, Hemel Hempstead, UK) and the band intensity of the product (17 kDa) quantified using the 1D Phoretix quantification software (Nonlinear Dynamics, Newcastle upon Tyne, UK). Background subtraction was done using the rolling ball method, and band intensity expressed as pixel volumes.

[4] = molecular target: T2, ADAMTS-4 (as used in Example 4; form not stated) (Homo sapiens (Human), UniProt O75173); assay: GST-IGD-FLAG substrate assay, Ki(app)
T2 sequence: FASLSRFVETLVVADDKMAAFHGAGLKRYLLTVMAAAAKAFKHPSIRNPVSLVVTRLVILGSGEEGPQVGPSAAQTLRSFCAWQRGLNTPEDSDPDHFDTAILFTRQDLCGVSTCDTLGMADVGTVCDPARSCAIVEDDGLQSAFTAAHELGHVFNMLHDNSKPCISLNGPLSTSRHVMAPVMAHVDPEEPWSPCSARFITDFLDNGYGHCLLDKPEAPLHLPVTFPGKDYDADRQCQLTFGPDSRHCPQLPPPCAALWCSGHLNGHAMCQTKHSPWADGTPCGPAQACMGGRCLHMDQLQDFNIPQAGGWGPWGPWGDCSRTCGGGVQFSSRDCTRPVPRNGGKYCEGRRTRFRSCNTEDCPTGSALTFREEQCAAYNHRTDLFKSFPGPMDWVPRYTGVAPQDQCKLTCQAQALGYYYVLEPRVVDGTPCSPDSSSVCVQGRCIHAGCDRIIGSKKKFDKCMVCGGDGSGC
Protocol: as §1

B1: (-2A)N-TIMP-3 (other)
chain: AACTCSPSHPQDAFCNSDIVIRAKVVGKKLVKEGPFGTLVYTIKQMKMYRGFTKMPHVQYIHTEASESLCGLKLEVNKYQYLLTGRVYDGKMYTGLCNFVERWDQLTLSQRKGLNYRYHLGCN
**Q.** How did the Ki [1] turn out when B1 was run?
**A.** > 500 nM

**Q.** And the Ki [2]?
**A.** > 250 nM

**Q.** What about the Ki [3] of the same binder?
**A.** 1.4 nM

**Q.** And the Ki [4]?
**A.** 67 nM
